Results on four proteins are retold here after publication doi:10.1101/404996 (bioRxiv, 2018).

One may read the Kd as the free concentration of one partner at which half of the binding sites on the other are occupied at equilibrium, for simple one-to-one binding. Lower therefore signals a tighter complex.

The chains are these.
B1: HIV-1 protease Flap+(I54V) (L10I, G48V, I54V, V82A on the pWT backbone) (enzyme)
chain: not shown
B2: HIV-1 protease Flap+(I54) (L10I, G48V, V82A on the pWT backbone) (enzyme)
chain: not shown
B3: HIV-1 protease, pseudo wild type (pWT) (enzyme)
chain: not shown
B4: HIV-1 protease Flap+(I54A) (L10I, G48V, I54A, V82A on the pWT backbone) (enzyme)
chain: not shown

The series concerns the molecule itself. The experiment in a line: other fluorescence titration.
Protein B1 came in with a Kd of under 0.25 µM.
In the case of B2 it was under 0.25 µM; in that of B3, under 0.25 µM; in that of B4, under 0.25 µM.
